In patent publication US11814435B2, “Therapeutic antibodies and their uses” (PFIZER INC., priority 2015, dated 2023):
Residue numbers refer to the chain shown, from its start.

Experiments:
hBCMA (human BCMA) = molecular target: T1, hBCMA (human BCMA) (Homo sapiens, UniProt Q02223); experiment: Kinetics and affinity of hBCMA/human IgG interactions by SPR (Bio-Rad Proteon XPR36); type: binding; details: huBCMA, 37° C.
T1 sequence (Q02223 1-184): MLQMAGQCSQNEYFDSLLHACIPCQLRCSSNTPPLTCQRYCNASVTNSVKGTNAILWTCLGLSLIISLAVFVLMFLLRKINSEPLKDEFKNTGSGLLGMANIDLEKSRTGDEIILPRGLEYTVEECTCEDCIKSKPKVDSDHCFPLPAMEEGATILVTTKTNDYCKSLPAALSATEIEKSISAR
Method in brief: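 Captured here: binding of soluble BCMA to covalently coupled anti-BCMA IgGs, measured at 37° C. or 25° C. with a five-point single-cycle series (top 50 nM, fivefold dilution) and extended 2 h off-rate phase, analyzed by a 1:1 mass-transport-corrected model.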

cyBCMA = experiment: Kinetics and affinity of cyBCMA/human IgG interactions by SPR (Bio-Rad Proteon XPR36); type: binding, cynomolgus; details: 37° C.

B1: L3.PY/L1.PH/H3.AE: anti-BCMA antibody (antibody, V domains shown)
VH: EVQLLESGGGLVQPGGSLRLSCAASGFTFGSYAMTWVRQAPGKGLEWVSAISGSGGNTFYADSVKGRFTISRDNSKNTLYLQMNSLRAEDTAVYYCARVSPIAAEMDYWGQGTLVTVSS
VL: EIVLTQSPGTLSLSPGERATLSCRASQSVSPHYLAWYQQKPGQAPRLLIYGASSRATGIPDRFSGSGSGTDFTLTISRLEPEDFAVYYCQHYPYPPSFTFGQGTKVEIK
ka (1/Ms) huBCMA @ 37° C. (hBCMA (human BCMA)): 3.68e+06 M⁻¹ s⁻¹ | kd (1/s) huBCMA @37° C. (hBCMA (human BCMA)): 0.00134 s⁻¹ | ka (1/Ms) cyBCMA @ 37° C. (cyBCMA): 2.61e+06 M⁻¹ s⁻¹ | kd (1/s) cyBCMA @37° C. (cyBCMA): 0.00202 s⁻¹

B2: L3.PY/L3.KY/H2.DY: anti-BCMA antibody (antibody, V domains shown)
VH: B1 VH with S52D, G53Y, A104S, E105G
VL: B1 VL with P31S, H32S, Q90K, H91Y
ka (1/Ms) huBCMA @ 37° C. (hBCMA (human BCMA)): 3.19e+06 M⁻¹ s⁻¹ | kd (1/s) huBCMA @37° C. (hBCMA (human BCMA)): 0.000642 s⁻¹ | ka (1/Ms) cyBCMA @ 37° C. (cyBCMA): 1.96e+06 M⁻¹ s⁻¹ | kd (1/s) cyBCMA @37° C. (cyBCMA): 0.00243 s⁻¹

B3: L3.PY/L3.KY/H2.YQ: anti-BCMA antibody (antibody, V domains shown)
VH: B1 VH with G53Y, S54Q, A104S, E105G
VL: B1 VL with P31S, H32S, Q90K, H91Y
ka (1/Ms) huBCMA @ 37° C. (hBCMA (human BCMA)): 2.14e+06 M⁻¹ s⁻¹ | kd (1/s) huBCMA @37° C. (hBCMA (human BCMA)): 0.00165 s⁻¹ | ka (1/Ms) cyBCMA @ 37° C. (cyBCMA): 1.27e+06 M⁻¹ s⁻¹ | kd (1/s) cyBCMA @37° C. (cyBCMA): 0.00258 s⁻¹

B4: L3.PY/L3.KY/H2.QR: anti-BCMA antibody (antibody, V domains shown)
VH: B1 VH with S63Q, V64R, A104S, E105G
VL: B1 VL with P31S, H32S, Q90K, H91Y
ka (1/Ms) huBCMA @ 37° C. (hBCMA (human BCMA)): 2.95e+06 M⁻¹ s⁻¹ | kd (1/s) huBCMA @37° C. (hBCMA (human BCMA)): 0.00099 s⁻¹ | ka (1/Ms) cyBCMA @ 37° C. (cyBCMA): 2.05e+06 M⁻¹ s⁻¹ | kd (1/s) cyBCMA @37° C. (cyBCMA): 0.00774 s⁻¹

B5: L3.PY/L3.KY/H2.QL: anti-BCMA antibody (antibody, V domains shown)
VH: B1 VH with S63Q, V64L, A104S, E105G
VL: B1 VL with P31S, H32S, Q90K, H91Y
ka (1/Ms) huBCMA @ 37° C. (hBCMA (human BCMA)): 3.65e+06 M⁻¹ s⁻¹ | kd (1/s) huBCMA @37° C. (hBCMA (human BCMA)): 0.00208 s⁻¹ | ka (1/Ms) cyBCMA @ 37° C. (cyBCMA): 2.75e+06 M⁻¹ s⁻¹ | kd (1/s) cyBCMA @37° C. (cyBCMA): 0.00409 s⁻¹

B6: L3.PY/L3.KY/H2.HA: anti-BCMA antibody (antibody, V domains shown)
VH: B1 VH with G53H, S54A, A104S, E105G
VL: B1 VL with P31S, H32S, Q90K, H91Y
ka (1/Ms) huBCMA @ 37° C. (hBCMA (human BCMA)): 3.29e+06 M⁻¹ s⁻¹ | kd (1/s) huBCMA @37° C. (hBCMA (human BCMA)): 0.00163 s⁻¹ | ka (1/Ms) cyBCMA @ 37° C. (cyBCMA): 2.28e+06 M⁻¹ s⁻¹ | kd (1/s) cyBCMA @37° C. (cyBCMA): 0.00318 s⁻¹

B7: L3.PY/L3.KY/H2.LT: anti-BCMA antibody (antibody, V domains shown)
VH: B1 VH with G53L, S54T, A104S, E105G
VL: B1 VL with P31S, H32S, Q90K, H91Y
ka (1/Ms) huBCMA @ 37° C. (hBCMA (human BCMA)): 2.92e+06 M⁻¹ s⁻¹ | kd (1/s) huBCMA @37° C. (hBCMA (human BCMA)): 0.000906 s⁻¹ | ka (1/Ms) cyBCMA @ 37° C. (cyBCMA): 1.82e+06 M⁻¹ s⁻¹ | kd (1/s) cyBCMA @37° C. (cyBCMA): 0.00232 s⁻¹

B8: L3.PY/L1.PH/H3.TAQ: anti-BCMA antibody (antibody, V domains shown)
VH: B1 VH with A97T, E105Q
VL: B1 VL
ka (1/Ms) huBCMA @ 37° C. (hBCMA (human BCMA)): 3.58e+06 M⁻¹ s⁻¹ | kd (1/s) huBCMA @37° C. (hBCMA (human BCMA)): 0.00213 s⁻¹ | ka (1/Ms) cyBCMA @ 37° C. (cyBCMA): 2.51e+06 M⁻¹ s⁻¹ | kd (1/s) cyBCMA @37° C. (cyBCMA): 0.0032 s⁻¹
